Assay [1] has as its target SARS病毒N蛋白 (SARS病毒 (SARS-CoV), UniProt P59595 1-422). Nature of the assay: ELISA. In general terms: In an ELISA, binding on a coated surface is turned into a signal by an enzyme label.
For assay [2], the target named is T1, 人冠状病毒OC43 N蛋白 (人冠状病毒OC43 (HCoV-OC43), UniProt P33469 1-448).
T1 sequence: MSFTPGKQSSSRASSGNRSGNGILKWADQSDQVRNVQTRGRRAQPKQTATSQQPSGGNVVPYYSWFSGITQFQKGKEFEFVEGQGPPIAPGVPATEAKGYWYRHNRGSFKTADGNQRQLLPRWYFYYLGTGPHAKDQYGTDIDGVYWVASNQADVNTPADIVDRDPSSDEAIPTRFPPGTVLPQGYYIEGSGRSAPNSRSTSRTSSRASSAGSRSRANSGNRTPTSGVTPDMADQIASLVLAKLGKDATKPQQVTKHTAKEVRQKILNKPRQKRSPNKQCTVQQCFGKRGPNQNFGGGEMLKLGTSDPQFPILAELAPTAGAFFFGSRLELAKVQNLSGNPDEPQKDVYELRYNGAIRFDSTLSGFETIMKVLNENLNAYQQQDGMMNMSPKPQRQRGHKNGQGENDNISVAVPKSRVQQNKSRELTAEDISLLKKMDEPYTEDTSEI
The assay can be described thus: ELISA.

Assay [3] addresses T2, 人冠状病毒HKU1 N蛋白 (人冠状病毒HKU1 (HCoV-HKU1), UniProt Q5MQC6 1-441).
T2 sequence: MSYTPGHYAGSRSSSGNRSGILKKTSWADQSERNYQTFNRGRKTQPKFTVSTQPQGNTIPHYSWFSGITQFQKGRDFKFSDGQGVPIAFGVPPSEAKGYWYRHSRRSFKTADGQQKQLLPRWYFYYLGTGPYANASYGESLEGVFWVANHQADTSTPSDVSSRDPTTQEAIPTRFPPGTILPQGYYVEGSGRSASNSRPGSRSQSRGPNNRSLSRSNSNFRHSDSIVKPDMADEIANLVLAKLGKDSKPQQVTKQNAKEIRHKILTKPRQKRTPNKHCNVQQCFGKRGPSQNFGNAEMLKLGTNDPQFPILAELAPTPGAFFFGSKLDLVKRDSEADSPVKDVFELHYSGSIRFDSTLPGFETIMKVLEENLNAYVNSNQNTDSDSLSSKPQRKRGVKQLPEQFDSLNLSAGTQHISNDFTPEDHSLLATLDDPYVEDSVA
Nature of the assay: ELISA.

For assay [4], the target named is MERS病毒N蛋白 (MERS病毒 (MERS-CoV), UniProt K9N4V7 1-411). Nature of the assay: ELISA.
Assay [5] addresses 新型冠状病毒(SARS-CoV-2)N蛋白 (SARS-CoV-2, UniProt P0DTC9 1-419).

By Kd is commonly meant the free concentration of one partner at which half of the binding sites on the other are occupied at equilibrium, for simple one-to-one binding. Read a high Kd as weaker binding.

B1: N5抗体 (N蛋白特异性单克隆抗体N5) (antibody, V domains shown)
VH: QVQLVQSGAEVKKPGSSVKVSCKASGGTFSSYAIGWVRQAPGQGLEWMGAIIPIFGTTIFAQKFQGRVTITADESTTTAYMELSSLRSDDTAVYYCARGGGGVERGVILTRWFDPWGQGTLVTVSS
VL: QSVLTQPPSVSAAPGQKVTLSCSGSSSNIGNNHVSWYQQLPGTAPKLLIYDNNKRPSGIPDRFSGSKSGTSATLGITGLQTGDEADYYCGTWDNSLSAGVFGGGTKLTVV
Consider B1, for which the binding result was “binds” in assay [1], “no binding” in assay [2], “no binding” in assay [3] and “no binding” in assay [4]. In addition, the Kd in assay [5] was less than 0.001 nM.

B2: N31抗体 (N蛋白特异性单克隆抗体N31) (antibody, V domains shown)
VH: QMQLVQSGAEVKKPGSSVKVSCKASGGTFSSYGISWVRQAPGQGLEWMGGIIPILGTANYAQRFQGRIALTADESTSTAYMEVSSLRSEDTAVYYCARGMWSNPPGYCCSYMDVWGKGTTVTVSS
VL: EIVLTQSPATLSVSPGERVTLACRASQSLRSKLAWYQQKPGQAPRLLIYDASTRATGFPARFSGSGSGTEFTLTISSLQSEDFAVYYCQQYSNWPRTFGQGTKLEIK
For the molecule B2, the binding result in assay [1] was “binds”; in assay [2], “no binding”; in assay [3], “no binding”; in assay [4], “no binding”. In assay [5], this molecule gave a Kd of less than 0.001 nM.

B3: N83抗体 (N蛋白特异性单克隆抗体N83) (antibody, V domains shown)
VH: QVQLQESGPRLVKSSETLSLTCTVSGGSISSGSYYWNWIRQPAGKGLEWIGRVYISGVTSYNPSLKSRVTISLDISKNQFSLQLTSVTAADSAVYYCARGGMAVGAPLYYYFYGMDVWGQGTTVTVSS
VL: DVVMTQSPLSLPVTPGEPASISCRSSQSLLHSNGYNYVDWYLQKPGQSPQLMIYLGSNRASGVPDRFSGSGSGTHFTLKISRVEAEDVGVYYCMQALQTLSITFGQGTRLEIK
Regarding B3, the binding result in assay [1] is “binds”; in assay [2] it was “no binding”; in assay [3] it was “no binding”; in assay [4], “no binding”. The Kd in assay [5] stood at 1.76 nM.

B4: 3B7抗体 (N蛋白特异性单克隆抗体3B7) (antibody, V domains shown)
VH: QMQLVQSGAEVKKPGASVRVSCKVSGYSLTELPMHWVRQAPGKGLEWVGSFDPQDAETTYAQRFQGRVAMTEDTSTDTAYMELSSLRSEDTAVYYCATPAPTIVGVVIYALHIWGQGTMVTVSS
VL: EIVLTQSPGTLSLSPGERATLSCRASQRVSDNSLAWYQQKPGQAPSLLIFAASIRAPGIPDRISGTGSGTDFTLTINRLEPEDFVVYFCLQYTTSPPLTFGGGTKLEIK
Turning to B4, the binding result is listed as “binds” in assay [1], “no binding” in assay [2], “no binding” in assay [3] and “no binding” in assay [4]. Also, binding in assay [5] was characterised by a dissociation constant (Kd) of 1.94 nM.

B5: N3抗体 (N蛋白特异性单克隆抗体N3) (antibody, V domains shown)
VH: QMQLVQSGAEVKRPGSSVKVSCKASGGTFSVYAISWVRQAPGQGLEWMGGIIPIFGTANYAQKFQGRVTLTADESTSTAYMELSSLSSEDTAVYYCARGGYCSGANCPKWGEWSHSYNYMDVWGKGTTVTVSS
VL: not shown
With B5, the binding result in assay [1] is listed as “binds”; in assay [2], “no binding”; in assay [3], “no binding”; in assay [4], “no binding”.

The record behind these values is patent CN116514962A (THE AFFILIATED HOSPITAL OF GUANGZHOU MEDICAL UNIV GUANGZHOU …, dated 2023).
